Patent US20100003195A1 (published 2010)

T1: human KDR-Fc chimeric fusion (R&D Systems #357-KD-05) (human, UniProt P35968 20-764)
T1 chain: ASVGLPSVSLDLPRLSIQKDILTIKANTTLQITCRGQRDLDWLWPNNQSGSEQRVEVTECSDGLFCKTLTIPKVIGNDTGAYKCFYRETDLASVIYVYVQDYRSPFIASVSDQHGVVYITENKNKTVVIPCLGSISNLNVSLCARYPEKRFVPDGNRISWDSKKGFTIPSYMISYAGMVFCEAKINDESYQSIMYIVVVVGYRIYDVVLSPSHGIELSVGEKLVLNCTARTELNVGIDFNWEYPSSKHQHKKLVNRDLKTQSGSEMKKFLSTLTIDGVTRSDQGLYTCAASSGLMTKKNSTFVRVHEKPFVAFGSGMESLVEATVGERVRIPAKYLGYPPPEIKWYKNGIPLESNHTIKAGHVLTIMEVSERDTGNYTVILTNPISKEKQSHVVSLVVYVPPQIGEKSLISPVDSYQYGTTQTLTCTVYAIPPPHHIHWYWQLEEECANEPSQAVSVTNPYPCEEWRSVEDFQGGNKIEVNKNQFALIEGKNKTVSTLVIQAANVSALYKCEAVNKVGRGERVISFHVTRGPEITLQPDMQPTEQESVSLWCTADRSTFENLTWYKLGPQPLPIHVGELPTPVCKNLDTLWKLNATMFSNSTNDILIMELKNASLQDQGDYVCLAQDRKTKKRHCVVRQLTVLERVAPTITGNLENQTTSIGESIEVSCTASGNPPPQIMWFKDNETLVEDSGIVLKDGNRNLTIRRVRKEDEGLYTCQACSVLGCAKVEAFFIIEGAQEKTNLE


Biological target: T1, human KDR-Fc chimeric fusion (R&D …)
Test: -; KD, B

First: SRVCWEDSWGGEVCFRYGGGGK [SRVCWEDSWGGEVCFRYGGGGK (SEQ ID NO: 371)]
Second: GDSRVCWEDSWGGEVCFGGGK [GDSRVCWEDSWGGEVCFGGGK (SEQ ID NO: 369)]
The Kd of the first is 37-fold lower: 35 nM for the first, 1300 nM for the second.

VCWEDSWGGEVCFGGGK [VCWEDSWGGEVCFGGGK (SEQ ID NO: 368)] was tested, and the Kd was 910 nM.
